Results on 22 molecules are retold here after patent US20040018971A1 (published 2004).

By IC50 is commonly meant the concentration at which inhibition is half-maximal. Higher therefore signals weaker potency.

For experiment [1], the target named is T1, HLA-A*1101 (human).
T1 construct: The construct is not described
The experiment in a line: competition with 125I-labelled standard peptide for purified HLA, gel filtration.

Experiment [2] deals with T2, HLA-A*0301 (human).
T2 construct: also called A3
The experiment is described as above.

The target of experiment [3] is T3, HLA-A*0301 (human).
T3 construct: also called HLA-A3
The experiment in a line: competition with 125I-labelled probe peptide for purified HLA-A*0301, gel filtration; ratio to standard peptide 941.12. Background: SEC sorts molecules by how far they enter the pores of the column.

In another experiment the target is T4, HLA-DRB1*0101 (human).
T4 construct: also called DR1
The experiment in a line: competition with 125I probe peptide, purified HLA.

The target of a further experiment is HLA-A*3101 (human). The experiment in a line: inhibition of 125I-labelled standard peptide binding to purified HLA, gel filtration.
Experiment [4] has as its target HLA-A*0301 (human). The description is as above.
In the next experiment the target is HLA-A*6801 (human). Described as above.
Experiment [5] deals with HLA-A*1101 (human). The description is as above.
A further experiment concerns the target HLA-A*3301 (human). The experiment is described as above.
Experiment [6] concerns the target T5, HLA-A*0301 (purified HLA class I molecule) (human).
T5 construct: also called A3
The experiment in a line: inhibition of 125I probe peptide binding to purified HLA; ratio to standard peptide; minus sign not explained.

In experiment [7] the target is HLA-A*1101 (purified HLA class I molecule) (human). The experiment in a line: inhibition of 125I probe peptide binding to purified HLA; ratio to standard peptide.
Experiment [8] concerns the target T6, HLA-A*0301 (human).
T6 construct: also called HLA-A3
The experiment in a line: inhibition of 125I-labelled standard peptide 941.12 binding to purified HLA-A*0301, gel filtration.

B1: HER2/neu peptide, position 739, 9 amino acids (peptide)
peptide: WIPDGENVK
notes: Synthetic peptide; also called Her2/neu.739 (9-mer)
Regarding B1, the relative binding ratio in the experiment with HLA-A*1101 [1] was 0.0001 ratio (IC50 of standard peptide / IC50 of test peptide); in the experiment with HLA-A*0301 [2] it was 0.0002 ratio (IC50 of standard peptide / IC50 of test peptide).

B2: HER2/neu peptide, position 280, 9 amino acids (ESMPNPEGR) (peptide)
peptide: ESMPNPEGR
notes: Synthetic peptide
In the case of B2, in the experiment with HLA-A*0301 [3], the “relative binding ratio (IC50 of standard peptide / IC50 of test peptide)” value is 0.0003 ratio.

B3: HER2/neu peptide, position 265, 10 amino acids (ELHCPALVTY) (peptide)
peptide: ELHCPALVTY
notes: Synthetic peptide
Consider B3, for which the “relative binding ratio (IC50 of standard peptide / IC50 of test peptide)” value with HLA-A*0301 [3] came to 0.0002 ratio.

B4: Her2/neu.883 (peptide)
peptide: KVPIKWMALESILRR
On to B4, for which the IC50 with HLA-DRB1*0101 was found to be 2.3 nM.

B5: HER2/neu peptide, position 851, 10 amino acids (peptide)
peptide: VLVKSPNHVK
notes: Synthetic A3 supermotif peptide
With B5, the relative binding ratio in the experiment with HLA-A*3101 was 0.0052 ratio (IC50 of standard peptide / IC50 of test peptide); with HLA-A*0301 [4], 0.082 ratio (IC50 of standard peptide / IC50 of test peptide); in the experiment with HLA-A*6801 it was 0.0005 ratio (IC50 of standard peptide / IC50 of test peptide); with HLA-A*1101 [5], 0.0072 ratio (IC50 of standard peptide / IC50 of test peptide); with HLA-A*3301, 0.0032 ratio (IC50 of standard peptide / IC50 of test peptide).

B6: HER2/neu peptide, position 976, 10 amino acids (peptide)
peptide: FSRMARDPQR
notes: also called Her2/neu.976 (10-mer)
Turning to B6, the relative binding ratio is -0.0002 ratio (IC50 standard / IC50 test) in experiment [6] and 0.001 ratio (IC50 standard / IC50 test) in experiment [7].

B7: Her2/neu.28 (peptide)
peptide: GTDMKLRLPASPETH
Take B7: in the experiment with HLA-DRB1*0101, the IC50 came out at 5000 nM.

B8: HER2/neu peptide, position 90, 9 amino acids (peptide)
peptide: QVRQVPLQR
As for B8, the “relative binding ratio (IC50 of standard peptide / IC50 of test peptide)” value with HLA-A*0301 [8] was 0.0029 ratio.

B9: Her2/neu.30 (peptide)
peptide: DMKLRLPASPETHLD
Molecule B9 had an IC50 with HLA-DRB1*0101 of 5000 nM.

B10: HER2/neu peptide, position 704, 10 amino acids (peptide)
peptide: GAMPNQAQMR
notes: also called Her2/neu.704 (10-mer)
As for B10, the relative binding ratio in experiment [6] was -0.0002 ratio (IC50 standard / IC50 test); in experiment [7] it was 0.0041 ratio (IC50 standard / IC50 test).

B11: HER2/neu peptide, position 129, 10 amino acids (peptide)
peptide: VTGASPGGLR
notes: Synthetic peptide; also called Her2/neu.129 (10-mer)
With B11, the relative binding ratio was 0.0005 ratio (IC50 of standard peptide / IC50 of test peptide) with HLA-A*1101 [1] and 0.0002 ratio (IC50 of standard peptide / IC50 of test peptide) with HLA-A*0301 [2].

B12: HER2/neu peptide, position 948, 10 amino acids (peptide)
peptide: TIDVYMIMVK
notes: as for B5
Take B12: the relative binding ratio was 0.0018 ratio (IC50 of standard peptide / IC50 of test peptide) with HLA-A*3101; 0.013 ratio (IC50 of standard peptide / IC50 of test peptide) with HLA-A*0301 [4]; 0.025 ratio (IC50 of standard peptide / IC50 of test peptide) with HLA-A*6801; 0.12 ratio (IC50 of standard peptide / IC50 of test peptide) with HLA-A*1101 [5]; 0.012 ratio (IC50 of standard peptide / IC50 of test peptide) with HLA-A*3301.

B13: HER2/neu peptide, position 24, 9 amino acids (peptide)
peptide: QVCTGTDMK
B13: the “relative binding ratio (IC50 of standard peptide / IC50 of test peptide)” value in the experiment with HLA-A*0301 [8] came out at 0.0007 ratio.

B14: HER2/neu peptide, position 1130, 10 amino acids (peptide)
peptide: PLTCSPQPEY
For the molecule B14, in the experiment with HLA-A*0301 [8], the “relative binding ratio (IC50 of standard peptide / IC50 of test peptide)” value was 0.0002 ratio.

B15: HER2/neu peptide, position 24, 9 amino acids (peptide)
peptide: QVCTGTDMK
notes: as for B5
Turning to B15, the relative binding ratio with HLA-A*3101 is 0.0002 ratio (IC50 of standard peptide / IC50 of test peptide); in the experiment with HLA-A*0301 [4] it was 0.0007 ratio (IC50 of standard peptide / IC50 of test peptide); with HLA-A*6801, 0.011 ratio (IC50 of standard peptide / IC50 of test peptide); with HLA-A*1101 [5], 0.052 ratio (IC50 of standard peptide / IC50 of test peptide); with HLA-A*3301, 0.0006 ratio (IC50 of standard peptide / IC50 of test peptide).

B16: HER2/neu peptide, position 491, 9 amino acids (peptide)
peptide: QALLHTANR
As to B16, the “relative binding ratio (IC50 of standard peptide / IC50 of test peptide)” value with HLA-A*0301 [8] stood at 0.0046 ratio.

B17: HER2/neu peptide, position 888, 9 amino acids (peptide)
peptide: WMALESILR
notes: Synthetic peptide; also called Her2/neu.888 (9-mer)
Turning to B17, the relative binding ratio with HLA-A*1101 [1] and with HLA-A*0301 [2] was -0.0002 ratio (IC50 of standard peptide / IC50 of test peptide) in each case.

B18: HER2/neu peptide, position 601, 10 amino acids (peptide)
peptide: PSGVKPDLSY
On to B18, for which the “relative binding ratio (IC50 of standard peptide / IC50 of test peptide)” value in the experiment with HLA-A*0301 [8] is 0.0003 ratio.

B19: Her2/neu.166 (10 amino acids) (peptide)
peptide: TILWKDIFHK
notes: Synthetic A3 supermotif peptide; also called HER2/neu peptide, position 166, 10 amino acids
Turning to B19, the relative binding ratio with HLA-A*3101 was 0.037 ratio (IC50 of standard peptide / IC50 of test peptide); in the experiment with HLA-A*0301 [4] it was 0.043 ratio (IC50 of standard peptide / IC50 of test peptide); in the experiment with HLA-A*6801, 0.04 ratio (IC50 of standard peptide / IC50 of test peptide); with HLA-A*1101 [5], 3.6 ratio (IC50 of standard peptide / IC50 of test peptide); with HLA-A*3301, 0.042 ratio (IC50 of standard peptide / IC50 of test peptide).

B20: HER2/neu peptide, position 996, 10 amino acids (peptide)
peptide: PASPLDSTFY
For B20, the “relative binding ratio (IC50 of standard peptide / IC50 of test peptide)” value in the experiment with HLA-A*0301 [8] came to 0.0003 ratio.

B21: HER2/neu peptide, position 1119, 9 amino acids (peptide)
peptide: PLPSETDGY
As to B21, the “relative binding ratio (IC50 of standard peptide / IC50 of test peptide)” value with HLA-A*0301 [8] was determined as 0.0002 ratio.

B22: Her2/neu.693 (peptide)
peptide: ETELVEPLTPSGAMP
In turn, B22 yielded an IC50 with HLA-DRB1*0101 of 833 nM.
